The chains are these.
B1: Yen1-1xHA, wild-type, purified [S. cerevisiae] / GST-Smt3 [S. cerevisiae] (parent complex)
chain 1: MGVSQIWEFLKPYLQDSRIPLRKFVIDFNKSQKRAPRIAIDAYGWLFECGFIQNIDISARSRSRSRSPTRSPRDSDIDSSQEYYGSRSYTTTGKAVINFISRLKELLSLNVEFLLVFDGVMKPSFKRKFNHEQNATTCDDEKEYYSSWEQHVKNHEVYGNCKGLLAPSDPEFISLVRKLLDLMNISYVIACGEGEAQCVWLQVSGAVDFILSNDSDTLVFGGEKILKNYSKFYDDFGPSSITSHSPSRHHDSKESFVTVIDLPKINKVAGKKFDRLSLLFFSVLLGADYNRGVKGLGKNKSLQLAQCEDPNFSMEFYDIFKDFNLEDLTSESLRKSRYRLFQKRLYLYCKDHSVELFGRNYPVLLNQGSFEGWPSTVAIMHYFHPIVQPYFDEEVLSDKYINMAGNGHYRNLNFNELKYFLQSLNLPQISSFDKWFHDSMHEMFLLREFLSIDESDNIGKGNMRITEEKIMNIDGGKFQIPCFKIRYTTFLPNIPISSQSPLKRSNSPSRSKSPTRRQMDIMEHPNSLWLPKYLIPQSHPLVIQYYETQQLIQKEKEKKGKKSNKSRLPQKNNLDEFLRKHTSPIKSIGKVGESRKEILEPVRKRLFVDTDEDTSLEEIPAPTRLTTVDEHSDNDDDSLIFVDEITNSQSVLDSSPGKRIRDLTQDEQVDVWKDVIEISPIKKSRTTNAEKNPPESGLKSRSSITINARLQGTKMLPPNLTAPRLEREHSSVLDQLVTDAQDTVDRFVACDSDSSSTIE
chain 2: MSDSEVNQEAKPEVKPEVKPETHINLKVSDGSSEIFFKIKKTTPLRRLMEAFAKRQGKEMDSLRFLYDGIRIQADQTPEDLDMEDNDIIEAHREQIGGATY

In the test the parent is B1. Kind of test: pull-down (GST-Smt3 on Glutathione resin, immuno-blot anti-HA); 1/10 inputs, 1/4 elution; parent: 1.
On to chain 1 D635A, chain 1 D636A, chain 1 D637A, for which the ratio to parent came out at 0.9.

Turning to chain 1 V675A, chain 1 E677A, the ratio to parent amounted to 0.9.

(Values after article PMC8986097, “SUMO-mediated recruitment allows timely function of the Yen1 nuclease in mitotic cells” (PLoS Genetics, 2022).)
